Experimental data published in PMC6457126 (Proteins, 2018).
No end group written: not given here.

T1: ATAD2 CO C1057A/C1079A/C1101A bromodomain (triple cysteine mutant) (human, UniProt Q6PL18 981-1108, C1057A | C1079A | C1101A)
T1 sequence: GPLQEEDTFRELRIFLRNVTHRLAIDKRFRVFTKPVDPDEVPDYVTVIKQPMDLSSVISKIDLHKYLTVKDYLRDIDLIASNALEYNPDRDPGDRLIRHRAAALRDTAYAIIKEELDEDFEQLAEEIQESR


Tests used:
[1] = biological target: histone H4K5ac (Homo sapiens) (UniProt P62805); assay: ITC; conditions: cited from earlier work
[2] = biological target: T1, ATAD2 CO C1057A/C1079A/C1101A …; assay: ITC

Kd [2] [µM] | dH [2] [kcal/mol] | stoichiometry N [2] | Molecule | Kd [1] [µM]
 |  |  | ATAD2 bromodomain (from UniProt Q6PL18) | 22
113 | -4.2 | 0.84 | SGRGK(Ac)GGKGL [histone H4K5ac peptide (residues 1-10)] | 
